Reference: patent KR20220012810A (dated 2022)

Tests used:
HCoV-HKU1 S1 = target: T1, HCoV-HKU1 S1 (HCoV-HKU1, UniProt Q5MQD0 13-760); assay: BLI (Octet)
T1 construct: domain: S1
T1 sequence: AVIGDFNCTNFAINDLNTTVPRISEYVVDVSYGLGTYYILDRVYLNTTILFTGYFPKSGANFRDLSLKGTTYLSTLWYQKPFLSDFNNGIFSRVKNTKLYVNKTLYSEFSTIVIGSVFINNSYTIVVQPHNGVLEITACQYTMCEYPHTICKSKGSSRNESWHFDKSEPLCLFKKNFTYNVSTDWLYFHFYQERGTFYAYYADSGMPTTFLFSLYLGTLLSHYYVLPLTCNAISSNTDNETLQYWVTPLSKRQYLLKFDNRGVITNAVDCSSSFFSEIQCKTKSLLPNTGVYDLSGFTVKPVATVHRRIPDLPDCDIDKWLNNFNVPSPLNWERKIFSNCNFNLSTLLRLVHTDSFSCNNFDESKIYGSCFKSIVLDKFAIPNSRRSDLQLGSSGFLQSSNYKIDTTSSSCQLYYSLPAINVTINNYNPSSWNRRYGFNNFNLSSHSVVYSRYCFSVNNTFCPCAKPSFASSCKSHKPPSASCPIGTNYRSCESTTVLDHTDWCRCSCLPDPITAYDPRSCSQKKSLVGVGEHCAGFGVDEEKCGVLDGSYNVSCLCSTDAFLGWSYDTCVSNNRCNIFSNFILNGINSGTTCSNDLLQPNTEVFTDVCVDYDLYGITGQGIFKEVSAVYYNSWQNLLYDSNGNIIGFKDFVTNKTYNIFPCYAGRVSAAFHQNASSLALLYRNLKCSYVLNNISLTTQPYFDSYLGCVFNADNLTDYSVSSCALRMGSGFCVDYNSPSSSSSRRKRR

SARS-CoV S1 = SARS-CoV S1 (SARS-CoV, UniProt P59594 14-667); assay: BLI (Octet)
MERS-CoV RBD = target: T2, MERS-CoV RBD (MERS-CoV, UniProt K9N5Q8 367-606); assay: BLI (Octet)
T2 sequence: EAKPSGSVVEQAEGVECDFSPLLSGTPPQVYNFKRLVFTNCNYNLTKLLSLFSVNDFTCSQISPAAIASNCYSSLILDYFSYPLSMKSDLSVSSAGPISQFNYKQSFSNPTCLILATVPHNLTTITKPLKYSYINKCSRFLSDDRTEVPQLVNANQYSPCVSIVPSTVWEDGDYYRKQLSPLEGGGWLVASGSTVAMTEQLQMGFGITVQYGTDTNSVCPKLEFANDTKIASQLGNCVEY

[1] = target: SARS-CoV-2 spike 'D614 or G614' (pseudovirus) (SARS-CoV-2, UniProt P0DTC2 14-1273); assay: cell-based or functional assay
[2] = target: SARS-CoV-2 spike D614 (pseudovirus) (SARS-CoV-2, UniProt P0DTC2 14-1273); assay: cell-based or functional assay

B1: No. 139 항체 (Full IgG) (antibody, V domains shown)
VH: QITLKESGPTLVKPTQTLTLTCSFSGFSLSTSGVGVGWIRQPPGKALEWLALIDWDDNKYHTTSLKTRLTISKDTSKNQVVLTMTNMDPVDTATYYCARIPGFLRYRNRYYYYGMDVWGQGTTVTVSS
VL: ELVLTQPPSVSAAPGQKVTISCSGSSSNIGNNYVSWYQQLPGTAPKLLIYDNNKRPSGIPDRFSGSKSGTSATLGITGLQTGDEADYYCGTWDSSLSAGVFGGGTELTVL
B1: no binding (HCoV-HKU1 S1); no binding (SARS-CoV S1); no binding (MERS-CoV RBD). For the same binder, the “IC50, pseudovirus neutralisation” value [1] was 0.35 ng/mL and the “IC50, pseudovirus neutralisation” value [2] was 0.378 ng/mL.
